{"source": "patent US20240254222A1", "about": "(Bayer, published 2024)", "test_in_all_cases": "SPR, captured antibody, Sema3A domain analyte", "key": {"[1]": {"molecular_target": "T1, Human Semaphorin3A-Sema Domain, TPP-19068 (human, UniProt Q14563 21-569)", "T1 construct": "produced inhouse in HEK293-6E; also called human monovalent Sema3A domain", "T1 sequence": "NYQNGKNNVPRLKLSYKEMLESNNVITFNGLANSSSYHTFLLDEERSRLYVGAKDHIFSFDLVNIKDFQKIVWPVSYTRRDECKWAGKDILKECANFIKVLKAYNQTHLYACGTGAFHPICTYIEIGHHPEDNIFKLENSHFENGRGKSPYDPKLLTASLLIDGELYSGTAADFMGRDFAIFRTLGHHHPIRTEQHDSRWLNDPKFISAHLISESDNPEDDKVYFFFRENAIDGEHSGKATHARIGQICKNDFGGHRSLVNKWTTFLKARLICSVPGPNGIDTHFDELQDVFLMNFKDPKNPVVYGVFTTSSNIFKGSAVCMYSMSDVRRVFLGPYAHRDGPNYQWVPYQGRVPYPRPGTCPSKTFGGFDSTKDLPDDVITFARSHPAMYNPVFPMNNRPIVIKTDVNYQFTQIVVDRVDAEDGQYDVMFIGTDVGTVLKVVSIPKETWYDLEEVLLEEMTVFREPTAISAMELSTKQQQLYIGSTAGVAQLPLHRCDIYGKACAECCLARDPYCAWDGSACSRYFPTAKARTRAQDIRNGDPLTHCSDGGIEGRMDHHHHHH", "in_short": "(§1)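 Kinetics fitted to a 1:1 Langmuir model after double referencing; glycine pH 2.0 regeneration. Sema3A domain analytes (several species) ran at […]-3.125 nM multi-cycle or single 100 nM; Fc-tagged Sema3A at 1.56-200 nM over Fab-captured antibody, otherwise Fc capture. Buffer HBS P+ plus 300 mM NaCl, CaCl₂, MgCl₂, BSA, 25° C.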"}, "[2]": {"molecular_target": "T2, Mouse Semaphorin3A-Sema Domain, TPP-19069 (mouse, UniProt O08665 21-569)", "T2 construct": "produced inhouse", "T2 sequence": "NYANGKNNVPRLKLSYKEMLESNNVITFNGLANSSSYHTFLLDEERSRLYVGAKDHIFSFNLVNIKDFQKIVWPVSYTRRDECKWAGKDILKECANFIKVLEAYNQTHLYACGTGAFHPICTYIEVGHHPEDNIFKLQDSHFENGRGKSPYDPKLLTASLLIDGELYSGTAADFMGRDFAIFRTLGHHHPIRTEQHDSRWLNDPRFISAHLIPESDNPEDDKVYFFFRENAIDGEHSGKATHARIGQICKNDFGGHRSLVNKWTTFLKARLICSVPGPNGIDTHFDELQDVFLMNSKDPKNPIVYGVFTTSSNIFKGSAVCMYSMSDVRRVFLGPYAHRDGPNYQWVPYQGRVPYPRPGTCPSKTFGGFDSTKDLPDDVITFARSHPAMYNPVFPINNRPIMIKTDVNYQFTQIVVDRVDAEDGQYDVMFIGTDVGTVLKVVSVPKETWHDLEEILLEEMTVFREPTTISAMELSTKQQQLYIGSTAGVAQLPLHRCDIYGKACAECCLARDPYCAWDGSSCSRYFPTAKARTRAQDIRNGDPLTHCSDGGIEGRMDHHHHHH", "in_short": "as §1"}, "[3]": {"molecular_target": "T3, Dog Semaphorin3A-Sema Domain, TPP-19121 (dog, UniProt Q63548 21-569 (rat entry), limits assumed)", "T3 construct": "produced inhouse", "T3 chain": "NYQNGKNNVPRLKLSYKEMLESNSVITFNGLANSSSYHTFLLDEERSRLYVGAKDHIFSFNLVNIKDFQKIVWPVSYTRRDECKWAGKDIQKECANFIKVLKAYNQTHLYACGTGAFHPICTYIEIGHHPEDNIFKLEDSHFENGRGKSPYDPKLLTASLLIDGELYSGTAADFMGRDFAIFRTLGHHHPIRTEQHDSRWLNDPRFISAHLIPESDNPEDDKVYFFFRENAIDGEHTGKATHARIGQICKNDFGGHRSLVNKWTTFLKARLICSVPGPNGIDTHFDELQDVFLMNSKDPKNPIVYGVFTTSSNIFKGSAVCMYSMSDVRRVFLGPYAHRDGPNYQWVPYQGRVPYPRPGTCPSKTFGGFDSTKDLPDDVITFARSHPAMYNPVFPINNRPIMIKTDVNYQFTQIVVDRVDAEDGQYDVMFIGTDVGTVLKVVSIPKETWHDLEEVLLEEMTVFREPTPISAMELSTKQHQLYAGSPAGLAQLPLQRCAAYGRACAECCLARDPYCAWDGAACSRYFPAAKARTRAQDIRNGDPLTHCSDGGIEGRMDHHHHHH", "in_short": "as §1"}}}
{"binder": "TPP-15374 (antibody, human IgG1, lambda, V domains shown, human IgG1; also called IgG1, hit from panning; parental mAb) VH: EVQLLESGGGLVQPGGSLRLSCAASGFTFSSYEMNWVRQAPGKGLEWVSGISWNSGSIGYADSVKGRFTISRDNSKNTLYLQMNSLRAEDTAVYYCARSGYSSSWFDPDFDYWGQGTLVTVSS VL: QSVLTQPPSASGTPGQRVTISCTGSSSNIGAGYDVHWYQQLPGTAPKLLIYGNSNRPSGVPDRFSGSKSGTSASLAISGLRSEDEADYYCSSYAGSNPYVVFGGGTKLTVLG", "values": [{"measurement": "Kd", "setting": "[1]", "value": 0.015, "unit": "µM"}, {"measurement": "Kd", "setting": "[2]", "value": 0.0083, "unit": "µM"}, {"measurement": "Kd", "setting": "[3]", "value": 0.019, "unit": "µM"}]}
{"binder": "TPP-30792 (antibody, human IgG1, lambda, V domains shown, IgG1; prior art, WO 2020/261281; also called 3H4 Univ Ramot; 3H4 (Ramot) Clon I) V domain 1: EVQLLESGGGLVQPGGSLRLSCAASGFTFRSYAVHWVRQAPGKGLEWVSSTEGSGVGTSYTDSVKGRFTISRDNSKNTLYLQMNSLRAEDTAVYYCARMLGGGNPLDYLDYWGQGTLVTVSS V domain 2: QSVLTQPPSASGTPGQRVTISCSGSSSNLGEGYDVHWYQQLPGKAPKLLIYYSDFRPSGVSDRFSGSKSGTSASLAISGLQSEDEADYYCAAWDDSLSSQVFGGGTQVTVLG", "values": [{"measurement": "binding result", "setting": "[1]", "value": "no binding"}, {"measurement": "binding result", "setting": "[2]", "value": "no binding"}, {"measurement": "binding result", "setting": "[3]", "value": "no binding"}]}
{"binder": "TPP-11489 (antibody, human IgG1, lambda, human IgG1; also called Chiome; Chiome Prior Art (hIgG1)) heavy: not shown light: SYELTQPPSVSVSPGQTARITCSGGGSYTGSYYYGWYQQKPGQAPVTVIYYNNKRPSDIPERFSGSLSGTTNTLTISGVQAEDEADYYCGSADNSGDAFGTGTKVTVLGQPKAAPSVTLFPPSSEELQANKATLVCLISDFYPGAVTVAWKADSSPVKAGVETTTPSKQSNNKYAASSYLSLTPEQWKSHRSYSCQVTHEGSTVEKTVAPTECS", "values": [{"measurement": "Kd", "setting": "[1]", "value": 0.073, "unit": "µM"}, {"measurement": "Kd", "setting": "[2]", "value": 0.16, "unit": "µM"}, {"measurement": "Kd", "setting": "[3]", "value": 0.05, "unit": "µM"}]}
